{
  "source": "patent US6815189B1",
  "about": "“Gene from acremonium chrysogenum encoding a protein with cephalosporin C acetylhydrolase activity and methods of use of such gene” (Antibiotics, S.A.U., priority 1999, dated 2004)",
  "test_system": "[H][C@]12SCC(COC(C)=O)=C(C(=O)O)N1C(=O)[C@H]2NC(=O)CCC[C@@H](N)C(=O)O",
  "experiment": "Effect of substrate concentration on CPC-AH B activity (Lineweaver-Burk)",
  "type": "biochemical, Acremonium chrysogenum",
  "conditions": "other: CPC-AH B vs. CPC, 37.0 °C",
  "description": "To quantify the enzymatic degradation of the CPC, a reaction mixture was prepared, based on that described by Fujisawa et al. (1975, Agric. Biol. Chem. 39: 1303-1309) that contained, in a total volume of 100 μl: Tris-HCl, pH 8.0, 50 mM; CPC, 20 mM and culture supernatant 75 μl. The mixture was incubated for 60 minutes at 37° C. and the reaction was stopped by adding 100 μl of methanol. The proteins precipitated were removed by centrifugation for 5 minutes at 14 000 rev/min in an Eppendorff centrifuge. Production of DAC was analysed by injecting 100 μl of the reaction mixture in an HPLC Beckman System Gold equipped with a μBondapack C18 column. Elution was performed using a mixture of solvents A (10 mM sodium acetate—acetic acid, pH 4.5) and B (100% acetonitrile) using a linear gradient from 0 to 3% of solvent B between the 0 and 2 minutes and constant 3% from minute 2 to 15 at a flow of 1.3 ml/min. The cephalosporins are detected by their absorbance at 260 nm. In these conditions DAC is eluted with a retention time of 3.1 min whereas for CPC this occurs at 8.3 min. Both compounds were identified by co-elution with standard samples of CPC and DAC.\nWith fractions obtained from ion exchange separation, tests of CPC-AH activity were performed by HPLC, varying the concentration of CPC. […]",
  "data": [
    {"substance": "CPC-AH B (Hapsidospora chrysogenum ATCC 11550)", "values": [
      {"measurement": "Km", "value": 33.72, "unit": "mM"},
      {"measurement": "Vmax", "value": 91.95, "unit": "pKat/mg"}
    ]}
  ]
}
